What was measured:
[1] = target: T1, OATP1A2 (Homo sapiens, UniProt P46721); assay: (§1) Cellular uptake in HEK293 cells assessed as human OATP1A2-mediated drug uptake at 0.05 uM after 1 min by Eadie-Hofstee plot analysis; type: ADME, cell-based; conditions: HEK293 cells expressing human OATP1A2
T1 sequence (P46721 whole entry): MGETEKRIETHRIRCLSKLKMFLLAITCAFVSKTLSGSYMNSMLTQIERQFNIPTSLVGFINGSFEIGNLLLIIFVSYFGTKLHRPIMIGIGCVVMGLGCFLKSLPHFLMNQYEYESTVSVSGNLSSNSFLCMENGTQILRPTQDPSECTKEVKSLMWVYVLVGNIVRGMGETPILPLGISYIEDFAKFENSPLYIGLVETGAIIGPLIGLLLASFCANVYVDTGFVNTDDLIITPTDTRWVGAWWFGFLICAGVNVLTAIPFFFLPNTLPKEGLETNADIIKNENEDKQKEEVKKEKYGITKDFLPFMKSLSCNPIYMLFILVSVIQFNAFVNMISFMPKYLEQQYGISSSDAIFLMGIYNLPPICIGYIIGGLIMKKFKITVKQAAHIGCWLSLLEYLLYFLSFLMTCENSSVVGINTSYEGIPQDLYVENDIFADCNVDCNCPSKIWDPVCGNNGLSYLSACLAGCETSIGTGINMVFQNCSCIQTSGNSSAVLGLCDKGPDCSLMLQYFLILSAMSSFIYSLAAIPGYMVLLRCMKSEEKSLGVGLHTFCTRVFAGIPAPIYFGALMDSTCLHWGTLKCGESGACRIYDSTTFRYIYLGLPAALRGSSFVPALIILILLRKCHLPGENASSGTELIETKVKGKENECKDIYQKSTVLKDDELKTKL

[2] = target: T2, Solute carrier organic anion transporter family member 1A2 (Homo sapiens, UniProt P46721); assay: as §1; type: ADME, cell-based; conditions: hek293, 1 min, 0.05 µM
T2 sequence (P46721 whole entry): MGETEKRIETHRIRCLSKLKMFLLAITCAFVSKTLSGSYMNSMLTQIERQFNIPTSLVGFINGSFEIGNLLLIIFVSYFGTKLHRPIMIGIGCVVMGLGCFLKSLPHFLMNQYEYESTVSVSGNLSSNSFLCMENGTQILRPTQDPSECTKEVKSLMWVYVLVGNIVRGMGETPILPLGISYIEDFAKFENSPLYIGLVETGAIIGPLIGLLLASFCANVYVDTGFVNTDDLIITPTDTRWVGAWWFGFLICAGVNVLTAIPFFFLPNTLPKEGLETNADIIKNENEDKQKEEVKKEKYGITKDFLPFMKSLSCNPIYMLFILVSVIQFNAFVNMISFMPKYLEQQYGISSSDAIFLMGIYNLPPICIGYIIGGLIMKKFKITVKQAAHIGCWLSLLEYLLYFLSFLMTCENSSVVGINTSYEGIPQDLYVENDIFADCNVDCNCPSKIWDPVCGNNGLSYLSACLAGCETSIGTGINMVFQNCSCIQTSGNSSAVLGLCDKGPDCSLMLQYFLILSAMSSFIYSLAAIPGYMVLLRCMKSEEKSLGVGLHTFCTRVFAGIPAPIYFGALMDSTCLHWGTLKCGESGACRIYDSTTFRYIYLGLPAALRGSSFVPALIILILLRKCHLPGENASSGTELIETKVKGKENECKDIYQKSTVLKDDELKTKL

[3] = target: T1, OATP1A2; assay: Cellular uptake in Xenopus oocytes cells assessed as OATP1A2 (unknown origin)-mediated drug uptake; type: ADME, cell-based, Oocyte; conditions: Xenopus oocytes expressing OATP1A2
[4] = substrate: C[C@]12CC[C@@H]3c4ccc(OS(=O)(=O)O)cc4CC[C@H]3[C@@H]1CCC2=O; assay: Cellular uptake in HEK293 cells assessed as bovine low affinity site of OATP1A2-mediated drug uptake at 0.01 to 50 uM after 1 min by Eadie-Hofstee plot analysis; type: ADME, cell-based, Bos taurus
[5] = substrate: C[C@]12CC[C@@H]3c4ccc(OS(=O)(=O)O)cc4CC[C@H]3[C@@H]1CCC2=O; assay: Cellular uptake in HEK293 cells assessed as bovine high affinity site of OATP1A2-mediated drug uptake at 0.01 to 50 uM after 1 min by Eadie-Hofstee plot analysis; type: ADME, cell-based, Bos taurus

Molecule: C[C@]12CC[C@@H]3c4ccc(OS(=O)(=O)O)cc4CC[C@H]3[C@@H]1CCC2=O [ESTRONE SULFURIC ACID]
- Km at 1 min [1]: 16.1 µM
- Vmax [2]: 39.4 pmol/mg/min
- Km [3]: 9.6 µM

B1: Solute carrier organic anion transporter family member (Bos taurus) (protein)
chain: MGETEERIETHRIRCLSKLKMFLLAITCAFVSKTLSGSYMNSMITQIERQFNIPTSLVGFINGSFEIGNLLLIIFVSYFGTKLHRPIMIGVGCVVMGLGCFLQSLPHFLMGRYEYESTVSVSGNLSSNSFLCMENGTQIFKPTKDPSECVKEVKSLMWVYVLVGNIIRGIGETPIMPLGISYIEDFAKFENSPLYIGLIKTGGIIGPLIGLSLASFCANVYVDTESVNTDDLTITPSDTRWVGAWWIGFLICAGVNVLTAIPFFFLPKTLPKEGLEENAEIIKNDKEKQEDIKKKRDAITKDFLPFMKSLLCNPIYMLFILISVLQFNAFVSMVSFMPKYMEQHYGKSASEAIFLLGIYNFPPICIGYIVGGLFMKKFKITAVQAAHIGCWLSFTEYLLHFLCFFMICDSSSVAGLTTSYEGIHQNLRVKNFLADCNMDCNCPTKVWDPVCGNNGLSYTSACLAGCEISSGTGRKMVFQNCSCIQTPGNSSAVLGLCDKGKDCSMMLQYFLILSVFSSFIFSLSAIPGYMVLLRCVKPEEKSLGVGLHAFCTRVLAGIPAPIYFGALVDSTCLHWGTLKCGESGACRIYDSNSFRYIYLGIPAALRGSSYIPAFLILFILRKYRLPGENASSETMLVAKFTGKENEGKEMDQNAKVLNDDELKTKL
- Km [4]: 46.6 µM
- Vmax [4]: 0.000375 µmol/min/mg
- Km [5]: 0.25 µM
- Vmax [5]: 2.45e-05 µmol/min/mg

Source: ChEMBL document CHEMBL3525993, “Identification of multiple binding sites for substrate transport in bovine organic anion transporting polypeptide 1a2” (Drug Metab Dispos, 2013)
